B1: Apoptosis regulator Bcl-2 homolog (Murid herpesvirus 4 (MuHV-4)), P89884 (parent)
chain: MSHKKSGTYWATLITAFLKTVSKVEELDCVDSAVLVDVSKIITLTQEFRRHYDSVYRADYGPALKNWKRDLSKLFTSLFVDVINSGRIVGFFDVGRYVCEEVLCPGSWTEDHELLNDCMTHFFIENNLMNHFPLEDIFLAQRKFQTTGFTFLLHALAKVLPRIYSGNVIYV

Variants of: B1
Details: with becn1_human BECN1, Q14457
becn1_human BECN1, Q14457, sequence (Q14457 whole entry): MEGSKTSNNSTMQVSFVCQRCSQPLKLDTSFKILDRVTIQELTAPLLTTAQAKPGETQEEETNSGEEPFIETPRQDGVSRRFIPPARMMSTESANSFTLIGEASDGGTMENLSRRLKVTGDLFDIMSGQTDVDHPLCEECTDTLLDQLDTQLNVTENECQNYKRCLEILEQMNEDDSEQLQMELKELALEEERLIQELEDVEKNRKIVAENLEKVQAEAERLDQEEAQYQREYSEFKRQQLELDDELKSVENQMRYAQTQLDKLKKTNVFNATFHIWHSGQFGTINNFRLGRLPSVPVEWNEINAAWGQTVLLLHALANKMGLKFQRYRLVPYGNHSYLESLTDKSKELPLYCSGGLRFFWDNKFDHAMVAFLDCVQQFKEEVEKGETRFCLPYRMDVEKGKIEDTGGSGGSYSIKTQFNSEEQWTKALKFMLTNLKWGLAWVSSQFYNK

Variant	effect of a mutation on the interaction
S85A;G86A;R87A	decreasing interaction strength

Variants of: B1
Details: with bax_human BAX

Variant	effect of a mutation on the interaction
S85A;G86A;R87A	decreasing interaction strength

Source: IntAct's records for PubMed 24034250
